Source: PMC7641761

Key:
[1] = molecular target: Ku70/Ku80 heterodimer FL (baculovirus) (human) (UniProt P12956+P13010); experiment: MST; settings: 1 mM DTT, 24 C, 40 nM FAM-RNA, EMSA: 25 mM Hepes-KOH pH 7.5, 50 mM NaCl, 1 mM EDTA, 10% glycerol, 0.1 uM BSA …
[2] = molecular target: Ku5D T305D;S306D;T307D;S314D;T316D (human) (UniProt P12956+P13010); experiment: MST; settings: MST: 50 mM Tris pH 8.0, 50 mM NaCl, 1 mM DTT, 24 C, 40 nM FAM-RNA, EMSA: 25 mM Hepes-KOH pH 7.5, 50 mM NaCl, 1 mM EDTA, 10% glycerol, 0.1 uM BSA …
[3] = MST: 50 mM Tris pH 8.0, 50 mM NaCl

Chain of Ku70/Ku80 heterodimer FL (baculovirus) (human) (P12956 whole entry, chain 1 of 2): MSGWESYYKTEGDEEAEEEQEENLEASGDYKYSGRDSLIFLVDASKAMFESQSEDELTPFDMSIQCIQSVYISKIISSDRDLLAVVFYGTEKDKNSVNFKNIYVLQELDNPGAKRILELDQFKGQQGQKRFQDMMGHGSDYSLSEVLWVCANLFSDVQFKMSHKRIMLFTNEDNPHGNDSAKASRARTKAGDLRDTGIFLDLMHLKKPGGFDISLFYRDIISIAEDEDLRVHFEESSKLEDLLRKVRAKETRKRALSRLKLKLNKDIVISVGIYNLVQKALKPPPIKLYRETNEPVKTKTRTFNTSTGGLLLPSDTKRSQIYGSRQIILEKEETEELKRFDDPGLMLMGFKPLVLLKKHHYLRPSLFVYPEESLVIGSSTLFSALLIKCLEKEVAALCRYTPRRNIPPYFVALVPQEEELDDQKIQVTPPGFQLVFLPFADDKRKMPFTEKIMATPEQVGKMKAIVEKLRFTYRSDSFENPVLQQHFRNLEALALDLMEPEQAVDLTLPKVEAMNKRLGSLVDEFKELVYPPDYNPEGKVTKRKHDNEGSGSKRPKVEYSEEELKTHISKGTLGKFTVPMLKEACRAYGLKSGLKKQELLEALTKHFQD
Chain of Ku70/Ku80 heterodimer FL (baculovirus) (human) (P13010 1-718, chain 2 of 2): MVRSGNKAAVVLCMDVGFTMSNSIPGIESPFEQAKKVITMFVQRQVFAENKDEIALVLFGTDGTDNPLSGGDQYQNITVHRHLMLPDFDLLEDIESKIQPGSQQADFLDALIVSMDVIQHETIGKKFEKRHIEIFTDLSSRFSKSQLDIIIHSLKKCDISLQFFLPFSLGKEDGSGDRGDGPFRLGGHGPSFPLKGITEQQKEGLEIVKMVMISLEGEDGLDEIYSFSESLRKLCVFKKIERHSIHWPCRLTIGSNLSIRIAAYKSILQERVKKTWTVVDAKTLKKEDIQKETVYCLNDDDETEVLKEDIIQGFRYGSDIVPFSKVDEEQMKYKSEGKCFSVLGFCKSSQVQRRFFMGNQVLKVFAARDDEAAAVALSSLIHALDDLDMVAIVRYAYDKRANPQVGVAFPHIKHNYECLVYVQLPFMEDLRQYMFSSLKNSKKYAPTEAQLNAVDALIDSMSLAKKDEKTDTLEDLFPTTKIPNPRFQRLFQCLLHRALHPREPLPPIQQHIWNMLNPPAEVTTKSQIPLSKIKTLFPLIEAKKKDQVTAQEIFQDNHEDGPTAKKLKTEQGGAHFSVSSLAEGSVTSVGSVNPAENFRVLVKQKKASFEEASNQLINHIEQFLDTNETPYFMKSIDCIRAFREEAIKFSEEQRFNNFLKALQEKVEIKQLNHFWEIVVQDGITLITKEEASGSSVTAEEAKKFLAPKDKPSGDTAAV
Chain of Ku5D T305D;S306D;T307D;S314D;T316D (human) (P12956 whole entry T305D/S306D/T307D/S314D/T316D, chain 1 of 2): as the sequence (P12956 whole entry, chain 1 of 2) above, with T305D, S306D, T307D, S314D, T316D counted along it
Chain of Ku5D T305D;S306D;T307D;S314D;T316D (human) (P13010 1-718, chain 2 of 2): as the sequence (P13010 1-718, chain 2 of 2) above

Substance	Kd [1, 3] [nM]	Kd ([1]; Hill 1.0, MST: 50 mM Tris pH 8.0, 50 mM NaCl) [nM]	binding signal (fold better than WT) [2]
polyA	4800	–	–
LINP1 SL2 + SL3	700	–	–
polyU	1400	–	–
FL LINP1	–	740	2
polyC	1290	–	–
